Assay: soluble on expression in E. coli; label from the status in PepcDB or PDB records

Row | Sequence | soluble on expression in E. coli
1 | AALGPSSQNVTEYVVRVPKNTTKKYNIMAFNAADKVNFATWNQARLERDLSNKKIYQEEEMPESGAGSEFNRKLREEARRKKYGIVLKEFRPEDQPWLLRVNGKSGRKFKGIKKGGVTENTSYYIFTQCPDGAFEAFPVHNWYNFTPLARHRTLTAEEAEEEWERRNKVLN | soluble
2 | SLSGNYLPRNTLVESLGHAMLKLSGWKIEGQLPALDKFVVIGAHHTSNWDFVAFLAAKFVLRLNARWFGKHTLFNGPLGGLMRRWGGIPIQRHLKLNTVDQAIQAFREHREFMLIIAPEGTRKKVDRWRMGFYHIARGAGVPVVPAALDYENRRIVIGEPFWPTGNEDADLCSLIGFYRPFIPKKPHYAFLGDEG | not soluble
3 | MSLDTDREQILAEFLSIDRTKVRRIEHHRCHAAYSYYASKYRNKPILALTVDGWGDGKDATIGIFDEKGKYSRVYESDQCAIGRIYRYMTLMLGMKPNEHEFKVMGLAPYGKETHAKKALDILRNTLYVDGEEFKWKEKPKDSYFWFKERFEGVRFDNIAFALQKWTEELLVEWVKNAINKYKIHDIVISGGVAMNIKAMGKIADLPEVKSLFIGGSASDESMAISSGICLAEDLTKESSREWNSNTIESLTRLYLGPSASLKEEERVVDGLDKKKFEIIENPENKRIAEVLFEGKILARAAGRMEFGQRALGNRSILADPIHLKIKEKINSAIKSRDFWMPFAPVVMDTFVERYLLNPKSLESPHMTLSFDTTEEGYDAMSAACHPADRTARAQILKEHDNPELYSLLKAFQHLTGRGALLNTSFNLHGFPIVNSPSEAVDVLVNSGLDGLILNYFLILKKEGHHHHHH | not soluble
4 | MGSDKIHHHHHHMDNLIITPNYVTEFNCVGPACEDSCCKNWTVYFDKKSYKHTISNPAFADLAKIAFVEIKESKENWASIKLDEQGACPFLTQEELCKIHQVGGEAALSYTCKTYPKKDTLVGKDKYQSLSLSCPEAARLVLFDPNAFQFQSHNGGNKKPAKPSPVWLEKSYQYSLDLLINANLDWELALLAIGLLIKTAEDASQYQIPIEELDKRHDQLKRFAESGLMAQQFEKTPYASQLQANLFVTIHSELCKINPRSGKARFGELNLAIEQACNEDNHYSIDLINQAWNQVAQPALKENPDVFERYILYYLFHNHFPGPVTQTPSQSFILLAIDCFMIRCYLSAMALKNNGINQREIILCFQVYQVIRQHRSSFVARLEELVEECGLNSISAVMTLLKTN | not soluble
5 | MSDDKFDAIVVGAGVAGSVAALVMARAGLDVLVIERGDSAGCKNMTGGRLYAHTLEAIIPGFAVSAPVERKVTREKISFLTEESAVTLDFHRGQPDVPQHASYTVLRNRLDPWLMEQAEQAGAQFIPGVRVDALVREGNKVTGVQAGDDILEANVVILADGVNSMLGRSLGMVPASDPHHYAVGVKEVIGLTPEQINDRFNITGEEGAAWLFAGSPSDGLMAGGFLYTNKDSISLGLVCGLGDIAHAQKSVPQMLEDFKQHPAIRPLISGGKLLEYSAHMVPEGGLAMVPQLVNEGVMIVGDAAGFCLNLGFTVRGMDLAIASAQAAATTVIAAKERADFSANSLAQYKRELEQSCVMRDMQHFRKIPALMENPRLFSQYPRMVADIMNEMFTIDGKPNQPVRKMIMGHAKKIGLINLLKDGIKGATAL | not soluble
6 | GPLGSMEPPLPVGAQPLATVEGMEMKGPLREPCALTLAQRNGQYELIIQLHEKEQHVQDIIPINSHFRCVQEAEETLLIDIASNSGCKIRVQGDWIRERRFEIPDEEHCLKFLSAVLAAQKAQS | soluble
7 | MGSDKIHHHHHHMSLRRIMVTAVRNLHPVTLLPSPRINILYGANGSGKTSVLEAVHLLGLARSFRSTRLNPVIQYEQAACTVFGEVQLTEGGTSNLGVSRERQGEFTIRIDGQNARSAAQLAELLPLQLINPDSFRLLEGAPKIRRQFLDWGVFHVEPRFLPAWQRLQKALRQRNSWLRHGTLDPASQAAWDRELCLASAEIDEYRRNYIKALKPVFERTLSELVELDGLTLSYYRGWDKDRELQEVLASSLLRDQQMGHTQAGPQRADLRLRLAGNNAADILSRGQQKLVVCALRIAQGHLVSQARRGHCIYLVDDLPSELDDQHRRALCRLLEELRCQVFITCVDHELLREGWQTETPVALFHVEQGRITQTHDHRE | not soluble
8 | MESLQSIKEIRKYIENNELVLMYFRSDNSGICYALDPLIEAISKKYSKISSVKVNTGNLPSVPADFKIFTVPEVIIFMNGSIVIEHFKYINFREIEEVLLRYYKCI | not soluble
9 | MGSDKIHHHHHHMDLFSASFNPHQIAPLAERMRPRTLDDYIGQSEIIGKGKLLRRAIEADRVTSLILYGPPGTGKTSLAQVIANTTSSGFVRINAVAAGVKEIREIIQTATEQLHLYGKKTLVFCDEVHRFNKGQQDALLPAVENGTITFIGATTENPFFELNSALLSRSTLFRLQPLTAEDIRSGLAQALADKERGLGNYSVSIDPEAWEHWLNFANGDLRRALNALELAVLTTPPEQGVRRITLSVAEESIQQRAMRFDKNGDNHYDIVSAFIKSMRGSDPDAALYWLAVLLESGEDPRFIVRRIIVHASEDVGLADPMVMLQAHAAANALEWVGLPEARIPIAQAVLAIATAPKSNSTIMAIDRATGYVRSHPTGQVPAHLRDANYPGAKKMGHGKNYLYPHDYPGHWVEQGYLPQEVQGENFFTPSGTGQDRDNRGKPQVIPPSE | not soluble
10 | GSGAVTAGAAPRILKHQVVRAELDRMLDGMRIGDPFPAEREIAEQFEVARETVRQALRELLIDGRVERRGRTTVVARPKIRQPLGMGSYTEAAKAQGLSAGRILVAWSDLTADEVLAGVLGVDVGAPVLQLERVLTTDGVRVGLETTKLPAQRYPGLRETFDHEASLYAEIRSRGIAFTRTVDTIDTALPDAREAALLGADARTPMFLLNRVSYDQDDVAIEQRRSLYRGDRMTFTAVMHAKNSAIVS | soluble
11 | MGIFSRFADIVNSNVTSLLDKAENPEKMIRLIIQEMEDTLVEVRTASAKALADKKELTRKISSIEAQVADWQDKASLALLKQREDLARSALIEKQKVQDILSSLKTEFILVEESIEKLSAELIELETKLTETRARQQALVIRQQTAQHRNDIKSHTHSGKTERAMAKFEQYERRIDELDAKADSYSIGKANSLEQEFAELQAQDEIDKEIERLKEQMKKDALEHHHHHH | not soluble
12 | MSLDAAQAMSKIPVIGKIVKAITFIEIKEEKDQSSIDVKTPALSGLSNKELENSINEKYLKESQQLYKEFIQSTSKNKKGHLSIYSDYETVTDTPDLLSIRRNIETTQASSYTQSRYITIDKKNDILLTLKSLFKDERYIKVISQNIKEQMKQQMKEDPNKIYWLTDEDAEPFKTILPDQTFYITEDHKLVISFDEYEVAPGYMGVTEFTIPTGVISNLLVGERYIREGHHHHHH | soluble
13 | MGSDKIHHHHHHMLQPHEMHLAGDLLDFLRDPSTAIARDFATQATLMRIASGATVFAEGDECSFFAILADGQIRVFKIGETGREITLYRFGRGESCILTTSCVLSNHQFPAIAVVEREATAFLVGQAIFRDWIERYSAWRDYVFQLLSRRLASVMAIIDEIAFRRVDVRLAAFLLRQAVGDPPTLNLTHQQIAAELGTSREVVSRILADFSEEGLISSSRGQITVCDRTRLYQRSEAR | not soluble
14 | MRLMKSYKNLKEEVWDTNRCSGCGACVAVCPVNNLYFREESPVKFECDECSCIIVPADIVEHPISAEFCKTVVYDVPCGACYDACPRIKKSAIPKPKGLGNILKAVRAKASIEIKNAQNGGVVTAILANAFDEGLIDGAIVMMDDKWTLEPESYLALSKEDVLKSAGSKYLWKGPILKALKTAVMEKKLKKLAVVGTPCVINAIYQILSSDNDLLKPFREAIRLKIALFCFETYDYSKMIKKLNEDGIEPWEVKKMDIESGKLKITLINGNTVEYKLKDVESAMRNGCKVCGDFTGLTSDISVGNVGTEKGYSTVLIRNKWGEGFFKRAVYNGYITYDENVDLEAVEKLVELKKKRVKKDLEHHHHHH | soluble
15 | MGSDKIHHHHHHMLSVAIPKAKPLLKQEKVATTAQKNQKEVIHYTAIGDSLTEGIGDLTNSGGFVPIVADDLKEHYNLNGVQTDNFGKNGDRSDQILKRIKEKPEIQKGLASADVITLTVGGNDLMKVISSNIFDLKVSSFNRPQKAYQRRVRRLLEEIREYNEKAPIYVLGIYNPFYLNFSEITEMQEIVDNWNQATEEMVQEQKRAYFIPINDLLYKGRGDEVGVTGGDSETTGSSASKEDLNNLLYEEDRFHPNNLGYQIMAGAVRDEMVKTEKEWITKSEGSE | not soluble
